Experiments:
[1] = biological target: human DR5 (death receptor 5) (human) (UniProt O14763); assay: cell-based or functional assay
[2] = biological target: human Fas (human) (UniProt P25445); assay: cell-based or functional assay
Chain of human Fas (human) (P25445 26-335): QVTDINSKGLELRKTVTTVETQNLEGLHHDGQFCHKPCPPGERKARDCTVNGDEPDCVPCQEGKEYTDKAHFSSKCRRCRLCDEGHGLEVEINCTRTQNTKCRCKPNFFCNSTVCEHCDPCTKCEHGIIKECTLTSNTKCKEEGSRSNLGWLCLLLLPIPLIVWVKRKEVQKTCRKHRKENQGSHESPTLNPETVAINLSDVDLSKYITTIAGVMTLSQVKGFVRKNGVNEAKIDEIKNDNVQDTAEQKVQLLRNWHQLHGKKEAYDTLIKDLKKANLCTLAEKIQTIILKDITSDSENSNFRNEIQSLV

## Mouse Anti-hDR5 Antibody (MAB631)
[1]
  EC50 (50% cell viability), Jurkat cells, immunoliposome of Example 36: 0.069 ng/mL
  EC50 (50% cell viability), Jurkat cells, immunoliposome of Example 37: 0.089 ng/mL
  EC50 (50% cell viability), Jurkat cells, secondary antibody-cross-linked MAB631: 13.4 ng/mL
  EC50 Ab/IL, Jurkat cells, cross-linked MAB631 vs immunoliposome of Example 36: 194
  EC50 Ab/IL, Jurkat cells, cross-linked MAB631 vs immunoliposome of Example 37: 150
  cell viability at 0.1 ng/ml, Jurkat cells, immunoliposome of Example 36 (% cell viability): < 50
  cell viability at 0.1 ng/ml, Jurkat cells, immunoliposome of Example 37 (% cell viability): < 50
  cell viability at 10 or 1000 ng/ml, Jurkat cells, immunoliposome of Example 36 (% cell viability): < 5
  cell viability at 10 or 1000 ng/ml, Jurkat cells, immunoliposome of Example 37 (% cell viability): < 5

## Mouse Anti-hDR5 Antibody (MAB6311)
[1]
  EC50 (50% cell viability), Jurkat cells, immunoliposome of Example 38: 0.075 ng/mL
  EC50 (50% cell viability), Jurkat cells, immunoliposome of Example 39: 0.083 ng/mL
  EC50 (50% cell viability), Jurkat cells, secondary antibody-cross-linked MAB6311: 2.39 ng/mL
  EC50 Ab/IL, Jurkat cells, cross-linked MAB6311 vs immunoliposome of Example 38: 31.9
  EC50 Ab/IL, Jurkat cells, cross-linked MAB6311 vs immunoliposome of Example 39: 28.8
  cell viability at 0.1 ng/ml, Jurkat cells, immunoliposome of Example 38 (% cell viability): < 40
  cell viability at 0.1 ng/ml, Jurkat cells, immunoliposome of Example 39 (% cell viability): < 40
  cell viability at 10 or 1000 ng/ml, Jurkat cells, immunoliposome of Example 38 (% cell viability): < 5
  cell viability at 10 or 1000 ng/ml, Jurkat cells, immunoliposome of Example 39 (% cell viability): < 5

## Mouse Anti-hFas Antibody (DX2)
[2]
  cell viability at 500 or 5000 ng/ml, WR19L12a cells, immunoliposome of Example 40 (% cell viability): < 20

Source: patent US20100209490A1
